Reference: article PMC10949841 (2024)

Molecular target: T1, HAdV-C5 hexon labeled with AlexaFluor594 (human adenovirus C5 (HAdV-C5), UniProt P04133 1-952, AlexaFluor594 label (sites not given))
T1 chain: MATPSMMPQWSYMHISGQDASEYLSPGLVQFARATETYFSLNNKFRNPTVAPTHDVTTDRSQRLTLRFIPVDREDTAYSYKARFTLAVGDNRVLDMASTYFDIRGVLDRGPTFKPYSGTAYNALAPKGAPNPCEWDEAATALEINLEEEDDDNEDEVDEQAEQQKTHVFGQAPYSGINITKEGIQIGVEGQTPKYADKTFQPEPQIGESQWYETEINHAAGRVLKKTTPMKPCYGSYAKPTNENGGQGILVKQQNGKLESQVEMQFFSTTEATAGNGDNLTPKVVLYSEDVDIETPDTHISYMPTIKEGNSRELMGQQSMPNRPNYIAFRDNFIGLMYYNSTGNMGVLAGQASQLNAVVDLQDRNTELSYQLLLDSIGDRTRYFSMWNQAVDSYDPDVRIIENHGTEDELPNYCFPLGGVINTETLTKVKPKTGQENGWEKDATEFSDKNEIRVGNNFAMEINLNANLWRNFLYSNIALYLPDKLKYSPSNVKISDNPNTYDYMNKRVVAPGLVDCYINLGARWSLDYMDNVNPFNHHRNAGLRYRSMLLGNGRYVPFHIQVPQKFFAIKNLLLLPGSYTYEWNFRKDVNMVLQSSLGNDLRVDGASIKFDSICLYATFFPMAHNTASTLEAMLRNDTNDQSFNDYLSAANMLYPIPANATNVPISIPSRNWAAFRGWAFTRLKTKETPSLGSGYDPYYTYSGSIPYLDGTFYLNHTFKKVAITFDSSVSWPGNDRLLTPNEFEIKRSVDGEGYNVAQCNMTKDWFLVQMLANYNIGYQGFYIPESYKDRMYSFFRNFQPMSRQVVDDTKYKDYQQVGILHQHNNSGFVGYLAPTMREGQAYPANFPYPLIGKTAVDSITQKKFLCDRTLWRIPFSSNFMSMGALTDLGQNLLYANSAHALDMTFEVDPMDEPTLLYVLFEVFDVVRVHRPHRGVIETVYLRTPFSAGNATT
Experiment: MST

B1: hLF mut2 (R27A) (natural protein)
chain: GRRRSVQWCAVSQPEATKCFQWQRNMAKVRGPPVSCIKRDSPIQCIQAIAENRADAVTLDGGFIYEAGLAPYKLRPVAAEVYGTERQPRTHYYAVAVVKKGGSFQLNELQGLKSCHTGLRRTAGWNVPIGTLRPFLNWTGPPEPIEAAVARFFSASCVPGADKGQFPNLCRLCAGTGENKCAFSSQEPYFSYSGAFKCLRDGAGDVAFIRESTVFEDLSDEAERDEYELLCPDNTRKPVDKFKDCHLARVPSHAVVARSVNGKEDAIWNLLRQAQEKFGKDKSPKFQLFGSPSGQKDLLFKDSAIGFSRVPPRIDSGLYLGSGYFTAIQNLRKSEEEVAARRARVVWCAVGEQELRKCNQWSGLSEGSVTCSSASTTEDCIALVLKGEADAMSLDGGYVYTAGKCGLVPVLAENYKSQQSSDPDPNCVDRPVEGYLAVAVVRRSDTSLTWNSVKGKKSCHTAVDRTAGWNIPMGLLFNQTGSCKFDEYFSQSCAPGSDPRSNLCALCIGDEQGENKCVPNSNERYYGYTGAFRCLAENAGDVAFVKDVTVLQNTDGNNNEAWAKDLKLADFALLCLDGKRKPVTEARSCHLAMAPNHAVVSRMDKVERLKQVLLHQQAKFGRNGSDCPDKFCLFQSETKNLLFNDNTECLARLHGKTTYEKYLGPQYVAGITNLKKCSTSPLLEACEFLRK
In the case of B1, the Kd is reported as 167 nM.

B2: hLF mut6 (K277S/K280A/K285S) (natural protein)
chain: GRRRSVQWCAVSQPEATKCFQWQRNMRKVRGPPVSCIKRDSPIQCIQAIAENRADAVTLDGGFIYEAGLAPYKLRPVAAEVYGTERQPRTHYYAVAVVKKGGSFQLNELQGLKSCHTGLRRTAGWNVPIGTLRPFLNWTGPPEPIEAAVARFFSASCVPGADKGQFPNLCRLCAGTGENKCAFSSQEPYFSYSGAFKCLRDGAGDVAFIRESTVFEDLSDEAERDEYELLCPDNTRKPVDKFKDCHLARVPSHAVVARSVNGKEDAIWNLLRQAQESFGADKSPSFQLFGSPSGQKDLLFKDSAIGFSRVPPRIDSGLYLGSGYFTAIQNLRKSEEEVAARRARVVWCAVGEQELRKCNQWSGLSEGSVTCSSASTTEDCIALVLKGEADAMSLDGGYVYTAGKCGLVPVLAENYKSQQSSDPDPNCVDRPVEGYLAVAVVRRSDTSLTWNSVKGKKSCHTAVDRTAGWNIPMGLLFNQTGSCKFDEYFSQSCAPGSDPRSNLCALCIGDEQGENKCVPNSNERYYGYTGAFRCLAENAGDVAFVKDVTVLQNTDGNNNEAWAKDLKLADFALLCLDGKRKPVTEARSCHLAMAPNHAVVSRMDKVERLKQVLLHQQAKFGRNGSDCPDKFCLFQSETKNLLFNDNTECLARLHGKTTYEKYLGPQYVAGITNLKKCSTSPLLEACEFLRK
B2 gave a Kd of 584 nM.
